Assay results from patent US20220220204A1 (NANJING GENSCRIPT BIOTECH, published 2022).
Changes are numbered by the printed parent chain.

Molecular target: human PD-L1 (PD-L1 aAPC/CHO-K1 cells) (human, UniProt Q9NZQ7 19-290)
Assay: cell-based or functional assay

human PD-L1 (PD-L1 aAPC/CHO-K1 cells), sequence (Q9NZQ7 19-290): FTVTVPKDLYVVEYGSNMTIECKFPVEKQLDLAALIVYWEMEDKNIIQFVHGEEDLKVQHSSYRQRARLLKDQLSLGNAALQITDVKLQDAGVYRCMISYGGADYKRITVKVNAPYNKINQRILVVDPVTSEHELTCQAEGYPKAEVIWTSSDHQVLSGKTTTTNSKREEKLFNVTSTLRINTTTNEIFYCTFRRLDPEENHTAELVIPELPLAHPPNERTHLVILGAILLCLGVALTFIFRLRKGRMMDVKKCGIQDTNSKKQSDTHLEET

B1: PDL1HCv1 (antibody, human IgG1, kappa, N297A, V domains shown)
VH: EVQLVQSGAEVKKPGASVKVSCKASGYIFTGYGITWVRQAPGQGLEWMGEIFPRRVQTYYSEKFKGRVTMTTDTSTSTAYMELRSLRSDDTAVYYCARDYDPYFALDYWGQGTTVTVSS
VL: DIQMTQSPSSLSASVGDRVTITCRASQDVSTAVDWYQQKPGKAPKLLIYSASYRYTGVPDRFSGSGSGTDFTFTISSLQPEDIATYYCQQHYSIPFTFGQGTKLEIKR
Bottom (PD-1/PD-L1 blockade bioassay): 28900
Log EC50 (PD-1/PD-L1 blockade bioassay): -0.323
Top (PD-1/PD-L1 blockade bioassay): 113000

B2: PDL1HCv5 (antibody, human IgG1, kappa, N297A, V domains shown)
VH: B1 VH with T72A
VL: B1 VL
Bottom (PD-1/PD-L1 blockade bioassay): 27800
Log EC50 (PD-1/PD-L1 blockade bioassay): -0.111
Top (PD-1/PD-L1 blockade bioassay): 110000
